# Assay results as given in a protein production outcome set (Wang et al. 2014).
# Assay: label from the status in PepcDB records
row,Sequence,protein production
1,MAILSYISATSTTPPIPQDQSPNSRLPTKIILPNKKPEKWSTGVAPGEYGGPPTTTKLRKYWGGEKEDPITSTDLIWNRDFMDQMKKLFDDPNDSSLDPSPSKEKSSGFLSFSRVMSLDSMDVDLSKELASSSKSVVKNRLDTSKSEAKKQMSKAIVSPKWKLAPTRREQEKWDRATKAATGGSDVMFRELRRPRGDPEVQAAKDREQYFKLKNKIQVLTLGIGGVGLVSAYISYTPEIALSFGAGLLGSLAYMRMLGNSVDAMADGARGVAKGAANQPRLLVPVVLVMIFNRWNAILVPEYGFMHLELIPMLVGFFTYKIATFFQAIEEAISITTQKPESISPDTQASD,not failed
2,MAILVDVRAAREIQDGEAGCRWERPLALGQGAFYAATGAWPLVHMPSFVAVTGPKLEPWLVRTVGVLIGAIGGTLLSAGARRRITPEVRWLALASAAGIAAVELWYAGRRRRIAPVYLLDGAGELALAAAWAALGAGRRLRGGVGTVAGGRGRHGREEDAR,failed
3,MAIPHYRLASFSSIIDDEIDKSVLVNLVGAIYDVGEFINTRPKQNIVDDLTLTFKISDNENRVLECLATKKEALDFDHNYRQYGGGVIVAVLGWWKIERYFDGTKNIRVCTACPISTVFP,failed
4,MAISKALIASLLISLLVLQLVQADVENSQKKNGYAKKIGFRGGRGCVTERAGLAATGATVCLRVRTETTTSASATLASPPTVDAASAHKKKQSS,failed
5,MAISQMKKLAMVFEKDYLDLVLKTLQQSQLVEVRDMKQLKHWQDAFNKGNVKLPQIVQYDLTHQKPLLDDEALQYLLQSQQELENGLASLSAFLPPIGKLTALRQKTPSLSFKQFEERHRQQAAQTALKMMSQKIERLEQLQSKIDQLTEYCQELEKWRSLTVLPQDLAQFHFLSARVGTIPSTANNHFYHQLKQHKGLFIEEVYHTEFEYGLVLFWQAQDTIHLQKYQFKPLLYKEQLLPSEQLRINKELLTNWLAEKDSLLKELRQSQKILAQLQVEIDYVLSQYQRQQTKKQLLGTRHLIALEGWIEADSVNQLKGLMTKTLGDMFYLDSYDVTPDDWEDVPIKLRNHRYIAPFELVTEMYALPKYQEKDPTPFLAPLYLTFFGMMVADLGYGLLLYAVTLAALVFFNLQKTSKRLVTFFNILAISVAIWGLIYGSFFGFDLPVALLSTKTDVITILVVSLLFGFVTLIFGLLLGAWQQVRMKAYATAYTSSLAWTFILLGLLLFILGKNVSGLAYLSVIGKWLALGNAFGILVVSLLKSKSLLGLGSGLYNLYGISSYLSDLVSFTRLMALGLSGASIGAAFNMIVGIFPPVTRFTVGIFIFILLHAINIFLSMLSGYVHGARLIFVEFFGKFYEGGGKAFNPLKLADNYVNVNEETDLEDN,failed
6,MAIVKMNKFTLLAFESEKEKLLKKIQSSSEVEFINLQDEEKVEGNEVFESLSKDDLDAETTLIEENVSKTRSALDFLKEFVAEVGGLKALKAGKESLTLDELEVKVENSNWEVVYSEVKKMERELATLENEKTKLLGEIEILEPWQSFDAPLGELNNFEKVVAFLGVISSQNLENMKNEIESEFKESYIEVISNTDQDSYVFVMTMKERAEEMDEVLKNFGFSAFQTKYKEKASVLVEEFKLKIQEIEAQKSDLKGVLSNYREEKRTLELAYEYYSNILLRKEASENFLKTDKVVVIQGWVPKNDNSSLEGIIQSSVGDMYYLEFEEVKEEEVAEVPVKLHNKGPAAAFDSITEMYSLPRYDEIDPTPLLTPFYLVFFGMMVADLGYGLVLFVGSLLAMKLLNLDEAQEKFAKFFMYLSIATTIAGAVFGTAFGFELKSIGLINPSKDTNLLLILSVGFGVIQIFFGLFIKAYMLIRDKQYLYALFDVGSWIMLLIGLPMIFFDGPISLVGKVLSIVGSILIILTQGRDEETKGAQIGQGLYALYGITGYVGDLVSYTRLMALGIAGGSIAAALNLIIGMFPGIAVIIVGPLFFIAAHTFNMLLSLLGAYVHTARLQYVEYFSKFYEGGGKAFTPFRTINKFITIKRNK,failed
7,MAKDTDIRSRMNRIEEIIDQLDADEVSLDEGSELYEEGQELLTEIRERLHEGQGEVIEIK,not failed
8,MAKFIMVVGTSSNSGKTVLVSGICRMLSNKGYKVAPFKSQNMSLNSRVSVEDGEIAVAQYTQAMAARAEPSVHFNPILLKPKGNFVSQVIVHGNPYEDKDYNEYRSKKDDFLVKIKESIDYLDKNYDYVVIEGAGSCCEINLLNDDIANLKVAEIAGADAILVSDIDRGGVFASIYGTVQLLPENWKKLLKGFVINKFRGNIDVLKDGFEKIEELTNIPVIGTIPYDETLVLPEEDSQALDGKRLEHHHHHH,failed
9,MAKGVRVGLKNIHFAKILTEDENGVTYDTPVKIGNAIEASITPNTNSETLYADDGPSEVESSLGETEVEIGIDQLSTTAQALLLGHTILSDGVLEKKETDIAPYGALLFESATTGGKSKLYALYKGRFQPQEESFATKGLEHHHHHH,not failed
10,MAKGYWIAQVDVRDSERYKDYVSTAKPAFERFGANFLARGGSVTELEGTARARNVVIEFPSVQHAIDCYNSPEYQAAAKIRQEVADAEMMIVEGI,not failed
11,MAKIITPLSANQVKNAKPGDKLYKLSDGGGLALWVYPTGRRSWKLSFMQDGRQQTISLGRYPDFSLAEAREWREEVRRKRAHGENVVNKKVRADFAFEKVARDWFVRWSKGRSEKYAGQVMRNFERWVFPAIGNLDIRQVRTADVVGCLRVMEARGIVDTLRKTKNSLKMVFAFAVGSGMMEINPVAQIGSGVFERVKTKNMTALSPSELPRLIDFLEQRNEFAVYAGRVHIHPVTRFCIYWLLLTMTRIREAALMEWSELDGEVWRIPAERKKERRGHDVPLSRAMRWVLDQARGLNVNGRFVFESVNFQGHINKESPHVAMRRSGLDTTAHGLRSLARTYLREVLKVYNDVAEKLLAHSLGTRTQTAYNRSELWEERKDAPERWGNDVLRLADNGK,failed
12,MAKIKFFALGGQDERGKNCYVLEIDNDVFIFNVGSLTPTTAVLGVKKIIPDFSWIQENQARVKGIFIGNAITENLGSLEFLFHTVGFFPIYTSSIGASIIKSKINENKLNIARDKLEIHELKPLETIEISNHSITPFKVSSSLPSSFGFALNTDNGYIVFIDDFIVLNDKNIAFENQLNQIIPKLSDNTLLLITGVGLVGRNSGFTTPKHKSLEQLNRIITPAKGRIFVACYDSNAYSVMTLAQIARMQNRPFIIYSQSFVHLFNTIVRQKLFNNTHLNTISIEEINNSTNSIVVLTSPPDKLYAKLFKIGMNEDERIRYRKSDTFIFMTPKVAGYEEIEAQILDDIARNEVSYYNLGREILSIQASDEDMKFLVSSLKPKYIIPTGGLYRDFINFTMVLKQAGAEQNQILILFNGEVLTIENKKLDSKKNELKLNPKCVDSAGLQEIGASIMFERDQMSESGVVIIIIYFDQKKSEFLNEITYSFLGVSLDVPEKDKLKTKMEELIKKQINDIKDFTTIKKRIGKEISKELKVSIKRAVMNLFTKMTSKAPLILSTIISI,failed
13,MAKKNKPTECPAGEKWAVPYADFLSLLLALFIALYAISAVNKSKVEALKTEFIKIFNYAPKPEAMQPVVVIPPDSGKEEEQMASESSKPASQNTETKATIARKGEGSVLEQIDQGSILKLPSNLLFENATSDAINQDMMLYIERIAKIIQKLPKRVHINVRGFTDDTPLVKTRFKSHYELAANRAYRVMKVLIQYGVNPNQLSFSSYGSTNPIAPNDSLENRMKNNRVEIFFSTDANDLSKIHSILDNEFNPHKQQE,failed
14,MAKKQLSLTRLSFPIFWDLLSKYLTVIINTAMVSHYSNFLVGAMGAGNQILDLFITIFSFLSVGCSVLIAQAIGAKDHVLARKVIHQSLFLNALLGFVCGVLILWHGEYLLYLLKIPQELLKDSEIYLHMLAICLFFDAIGIVLAAIVRVYNMAYWVMFIGFLMDIVVICGNYYVLHYTKSELFGIGLSNIFARIVAIVALFAILFYKLKIHLKIKEMIKLEKEVLKKVLNIGGFSAGENLLWIVQYTIAFAFVASLGEASLSVQTIYFQISMLIMLIGQATSIANEIIVGKLIGARYENIAYKHAWRALYFSVIASALVALLNYLCQDFTMQILGLKEELKNLMIPLFALSIFLEISRTFNIVMVNSLRASGDAKFPFFSGLVFMMGVSLPVGYVLCFHFNLGILGVWIGFCADEFLRGMVNSYRWKSKKWQGKALV,failed
15,MAKKSTRTTPEDSQASTTDSAATSTASEATQAATSATDDQAEQTTAVDPTQQITDLKAQLDAKDDQLLRAQAEIVNMQNRNKKEQAALLKYDGQALAKDVLPVLDNLERALATPADDEAAQQLKKGVEMVYGHLQDALKKHGVTEVAAAGEKFDPNIHQAVQTVPVDDDHPADTVVQVLQRGYLLKDRTLRPAMVVVAQ,failed
16,MAKKVVGEIKLQIPAGKANPSPPVGPALGQRGVNIMEFCKAFNERTKDMGSFNIPVIITVYQDKSFTFITKKPPVTDLIKKASGVEKGSDNPLKNKIAKLTHKQVEEIAQLKMEDLNTSTMEAAKKIVMGSARSMGVEVVD,failed
17,MAKLRVGIVFGGKSAEHEVSLQSAKNIVDAIDKTRFDVVLLGIDKAGQWHVNDAENYLQNADDPAHIALRPSAISLAQVPGKHQHQLINAQNGQPLPTVDVIFPIVHGTLGEDGSLQGMLRVANLPFVGSDVLSSAACMDKDVAKRLLRDAGLNIAPFITLTRTNRHAFSFAEVESRLGLPLFVKPANQGSSVGVSKVANEAQYQQAVALAFEFDHKVVVEQGIKGREIECAVLGNDNPQASTCGEIVLNSEFYAYDTKYIDDNGAQVVVPAQIPSEVNDKIRAIAIQAYQTLGCAGMARVDVFLTADNEVVINEINTLPGFTNISMYPKLWQASGLGYTDLISRLIELALERHTANNALKTTM,not failed
18,MAKLTESMTNVLEGDSMDQDVESPVAIHQPKLPKQARDDLPRHISRDRTKRKIQRYVRKDGKCNVHHGNVRETYRYLTDIFTTLVDLKWRFNLLIFVMVYTVTWLFFGMIWWLIAYIRGDMDHIEDPSWTPCVTNLNGFVSAFLFSIETETTIGYGYRVITDKCPEGIILLLIQSVLGSIVNAFMVGCMFVKISQPKKRAETLVFSTHAVISMRDGKLCLMFRVGDLRNSHIVEASIRAKLIKSKQTSEGEFIPLNQTDINVGYYTGDDRLFLVSPLIISHEINQQSPFWEISKAQLPKEELEIVVILEGMVEATGMTCQARSSYITSEILWGYRFTPVLTLEDGFYEVDYNSFHETYETSTPSLSAKELAELASRAELPLSWSVSSKLNQHAELETEEEEKNLEEQTERNGDVANLENESKV,failed
